Experimental data reported in patent US11707511B2, “Vaccine compositions and methods of using the same” (The Board of Supervisors of Louisiana State University and …, priority 2017, dated 2023).

System: C. auris AR-0386
Assay: Passive transfer of mAbs or two mAbs in combination in A/J mouse model of invasive C. auris infection
Format: in vivo, Candida auris
Method: A. Complement protein C5-defecient A/J mice were treated with one of the five mAb or with DPBS as a vehicle control. The following day, mice were challenged with 1×10^8 C. auris cells/100 ul DPBS dose per mouse. […] B. Fungal burdens in the kidneys (top), heard (center), and brain (bottom).
Identified protective mAbs were obtained by use of standard hybridoma technique and purified by use of protein A/G. A/J mice were given an i.p. dose of either single mAb or two mAbs in combination 24 hours before hematogensous challenge with a lethal dose (2×108) of C. auris AR-0386 live cells. Mice received either 9G2F5 alone or 6H1G8 alone or 9F2G5 and 3H7E3 in combination had 40% survival rate respectively, with prolonged survival as compared to control animals that received DPBS buffer control.
Evaluation and validation of a panel of peptide-specific monoclonal antibodies (mAbs) as a passive immunization strategy protect against invasive C. auris infection in established A/J mouse model of human disease.
The monoclonal antibodies used in this experiment were: • 6H1G8 (IgG2b), α-Hwp1 (Hyphal wall protein) • 3E2G2 (IgG2b), α-Fba (Fructose bisphosphate aldolase) • 10E7E2 (IgG1), α-GPV-P3 (General peptide vaccine 3 from Phosphoglycerate kinase) • 9F2G5 (IgG2a), α-Pgk1 (Phosphoglycerate kinase) • 3H7E3 (IgG1), α-Met6 (Methyltetrahydropteroyltriglutamate)

B1: 10E7E2: IgG1 mAb of hybridoma 10E7E2, specific for GPV-P3; VH SEQ ID NO: 72, VL SEQ ID NO: 74 (antibody, V domains shown)
VH: QVQLKQSGPGLVQPSQSLSITCTVSGFSLTSYGVHWVRQSPGKGLEWLGVIWSGGTTDYNAAFISRLSISKDNSKSQVFFKMNSLQANDTAIYYCARGGHRGFAYWGQGTLVTVSA
VL: DIVMTQSHKFMSTSVGDRVSITCKASQDVGTAVAWYQQKPGQSPKLLIYWASTRHTGVPDRFTGSGSGTDFTLTISNVQSEDLADYFCQQYSSYPLTFGAGTKLELK
fungal burdens in targeted organs (A/J mouse model, in words): lower fungal loads
protection against C. auris invasive infection (A/J mouse model, in words): protect against C. auris invasive infection
survival (FIG. 15A, A/J mice, 1×10^8 C. auris cells, experiment terminated 40 days post challenge): 25%
Protection against C. auris (Table 19, A/J strain mice): 80-100%
Protection against C. auris (grade word) (Table 19, A/J strain mice): High
